# B1: bsAb19156D (bispecific antibody, V domains shown)
# VH 1: QVQLVESGGGVVQPGRSLRLSCTASGFTFSSYAMYWVRQAPGKGLEWVSVIYYDGSYKYYADSVKGRFTISRDNSKNTLYLQMDSLRAEDTAVYYCASYNWNYWYFDFWGRGTLVTVSS
# VH 2: QVQLVESGGGLVKPGGSLRLSCAASGFTFSDYYMTWIRQTPGKGLDWVSYISSSGTNKYNADSVKGRFTISRDNAKNSLYLQMNSLRAEDTAVYYCVRDPPWGMDVWGQGTTVTVSS
# VL: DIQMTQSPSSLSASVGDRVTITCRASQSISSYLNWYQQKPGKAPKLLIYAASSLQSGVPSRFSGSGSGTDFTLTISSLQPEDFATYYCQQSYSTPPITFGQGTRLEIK
# notes: common light chain
# B2: bsAb19149D (bispecific antibody, V domains shown)
# VH 1: B1 VH 1
# VH 2: QVQLVESGGGVVQPGRSLRLACAASGFTFRSYGMHWVRQAPGKGLEWVAVIWYDGSNKYYTDSVKGRFTISRDNSKNTLYLQMNSLRAEDTAMYYCAIDKWATVTTYLFDYWGQGTLVTVSS
# VL: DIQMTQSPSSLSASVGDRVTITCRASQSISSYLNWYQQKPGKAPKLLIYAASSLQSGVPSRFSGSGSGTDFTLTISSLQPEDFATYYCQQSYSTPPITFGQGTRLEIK
# notes: common light chain
# B3: bsAb19153D (bispecific antibody, V domains shown)
# VH 1: B1 VH 1
# VH 2: QVQLVQSGAEVMKPGASVKVSCRASGYTFSSYDINWVRQAPGQGLEWMGWISTATGNTNYPQKVQGRVTMTTDTSTNTAYMELRSLRSDDTAVYYCTREGNSKGWLDPWGQGTLVTVSS
# VL: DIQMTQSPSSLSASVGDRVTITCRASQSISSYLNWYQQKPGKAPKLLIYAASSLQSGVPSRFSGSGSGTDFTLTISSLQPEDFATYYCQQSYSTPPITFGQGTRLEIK
# notes: common light chain
# B4: bsAb19152D (bispecific antibody, V domains shown)
# VH 1: B1 VH 1
# VH 2: EVQLVQSGAEVKKPGESLKISCKGSGYSFTSYWIDWVRQMPGKGLEWMGIIYPDDSDTRYSPSFQGQVTMSVDKSISTAYLQWSSLKASDTAIYYCARHERGIVEAGTDYYYYYGMDVWGQGTTVTVSS
# VL: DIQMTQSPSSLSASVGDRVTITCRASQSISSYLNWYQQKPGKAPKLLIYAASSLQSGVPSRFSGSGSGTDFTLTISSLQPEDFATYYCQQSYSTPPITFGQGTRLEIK
# notes: common light chain
# B5: bsAb19151D (bispecific antibody, V domains shown)
# VH 1: B1 VH 1
# VH 2: EVQLVESGGGLVQPGGSLRLSCAASGFTFSSYAMNWVRQAPGKGLEWVSAISGSGDSTYYTDSVKGRFTISRDNSKNTLYLQMNTLRAEDTAVYYCAKEEIVMLVGATPGWFDPWGQGTLVTVSS
# VL: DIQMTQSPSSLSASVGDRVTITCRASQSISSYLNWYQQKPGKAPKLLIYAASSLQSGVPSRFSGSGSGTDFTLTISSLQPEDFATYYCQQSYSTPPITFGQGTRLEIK
# notes: common light chain
# What was measured:
# [1] = target: T1, Macaca Fascicularis LEPR extracellular domain expressed with a C-terminal myc-myc-hexahistidine tag (Macaca fascicularis, UniProt Q9MYL0 22-837 (rhesus entry)); test: SPR Biacore 4000, bsAb captured by anti-human Fc, 37 C
# T1 construct: Monomeric reagent; the whole entry is the construct with its tag; also called mfLEPR-MMH
# Experimental: (§1) Equilibrium dissociation constants (KD values) for LEPR and GP130 binding to purified anti-LEPR/GP130 bispecific antibodies were determined using a real-time surface plasmon resonance biosensor using a Biacore 4000 instrument. All binding studies were performed in 10 mM HEPES, 150 mM NaCl, 3 mM EDTA, and 0.05% v/v Surfactant Tween-20, pH 7.4 (HBS-ET) running buffer at 25° C. and 37° C. The Biacore sensor surface was first derivatized by amine coupling with a monoclonal mouse anti-human Fc antibody (GE, #BR-1008-39) to capture anti-LEPR/GP130 bispecific antibodies. […] Different concentrations of LEPR or GP130 reagents were first prepared in HBS-ET running buffer (100 nM-3.7 nM; 3-fold serial dilution) and were injected over anti-human Fc captured anti-LEPR/GP130 bispecific antibody surface for 4 minutes at a flow rate of 30 μL/minute, while the dissociation of bispecific antibody bound LEPR or GP130 reagent was monitored for 10 minutes in HBS-ET running buffer. Kinetic association (kₐ) and dissociation (kd) rate constants were determined by fitting the real-time binding sensorgrams to a 1:1 binding model with mass transport limitation using Scrubber 2.0c curve-fitting software. Binding dissociation equilibrium constants (KD) and dissociative half-lives (t ½) were calculated from the kinetic rate constants as: […]
# [2] = target: T2, human LEPR extracellular domain expressed with a C-terminal myc-myc-hexahistidine tag (human, UniProt P48357 22-839); test: as above
# T2 construct: Monomeric reagent; the whole entry is the construct with its tag; also called hLEPR-MMH; hLEPR.mmh
# Experimental: as §1
# [3] = target: T1, Macaca Fascicularis LEPR extracellular …; test: SPR Biacore 4000, bsAb captured by anti-human Fc, 25 C
# Experimental: as §1
# [4] = target: T2, human LEPR extracellular domain …; test: as above
# Experimental: as §1
binder,measurement,setting,value
B1,100 nM mfLEPR-MMH Bound (RU),[1],148 RU
same,Kd,[1],5.88 nM
same,koff,[1],0.000567 s⁻¹
same,kon,[1],96400 M⁻¹ s⁻¹
same,t½,[1],20 min
same,100 nM hLEPR-MMH Bound (RU),[2],60 RU
same,Kd,[2],23 nM
same,koff,[2],0.000842 s⁻¹
same,kon,[2],36600 M⁻¹ s⁻¹
same,t½,[2],14 min
same,100 nM mfLEPR-MMH Bound (RU),[3],97 RU
same,Kd,[3],3.27 nM
same,koff,[3],0.000132 s⁻¹
same,kon,[3],40400 M⁻¹ s⁻¹
same,t½,[3],87 min
same,100 nM hLEPR-MMH Bound (RU),[4],39 RU
same,Kd,[4],7.11 nM
same,koff,[4],0.000164 s⁻¹
same,kon,[4],23100 M⁻¹ s⁻¹
same,t½,[4],70 min
B2,100 nM mfLEPR-MMH Bound (RU),[1],154 RU
same,Kd,[1],8.09 nM
same,koff,[1],0.000506 s⁻¹
same,kon,[1],62500 M⁻¹ s⁻¹
same,t½,[1],23 min
same,100 nM hLEPR-MMH Bound (RU),[2],61 RU
same,Kd,[2],18.4 nM
same,koff,[2],0.000622 s⁻¹
same,kon,[2],33800 M⁻¹ s⁻¹
same,t½,[2],19 min
same,100 nM mfLEPR-MMH Bound (RU),[3],96 RU
same,Kd,[3],2.65 nM
same,koff,[3],0.000111 s⁻¹
same,kon,[3],41900 M⁻¹ s⁻¹
same,t½,[3],104 min
same,100 nM hLEPR-MMH Bound (RU),[4],36 RU
same,Kd,[4],7.16 nM
same,koff,[4],0.000194 s⁻¹
same,kon,[4],27100 M⁻¹ s⁻¹
same,t½,[4],60 min
B3,100 nM mfLEPR-MMH Bound (RU),[1],158 RU
same,Kd,[1],8.81 nM
same,koff,[1],0.00058 s⁻¹
same,kon,[1],65800 M⁻¹ s⁻¹
same,t½,[1],20 min
same,100 nM hLEPR-MMH Bound (RU),[2],65 RU
same,Kd,[2],19.7 nM
same,koff,[2],0.000791 s⁻¹
same,kon,[2],40100 M⁻¹ s⁻¹
same,t½,[2],15 min
same,100 nM mfLEPR-MMH Bound (RU),[3],102 RU
same,Kd,[3],2.96 nM
same,koff,[3],0.000126 s⁻¹
same,kon,[3],42600 M⁻¹ s⁻¹
same,t½,[3],92 min
same,100 nM hLEPR-MMH Bound (RU),[4],40 RU
same,Kd,[4],6.46 nM
same,koff,[4],0.000165 s⁻¹
same,kon,[4],25500 M⁻¹ s⁻¹
same,t½,[4],70 min
B4,100 nM mfLEPR-MMH Bound (RU),[1],169 RU
same,Kd,[1],5.9 nM
same,koff,[1],0.000589 s⁻¹
same,kon,[1],99900 M⁻¹ s⁻¹
same,t½,[1],20 min
same,100 nM hLEPR-MMH Bound (RU),[2],74 RU
same,Kd,[2],20.8 nM
same,koff,[2],0.000787 s⁻¹
same,kon,[2],37700 M⁻¹ s⁻¹
same,t½,[2],15 min
same,100 nM mfLEPR-MMH Bound (RU),[3],113 RU
same,Kd,[3],2.97 nM
same,koff,[3],0.000124 s⁻¹
same,kon,[3],41800 M⁻¹ s⁻¹
same,t½,[3],93 min
same,100 nM hLEPR-MMH Bound (RU),[4],47 RU
same,Kd,[4],6.75 nM
same,koff,[4],0.000165 s⁻¹
same,kon,[4],24500 M⁻¹ s⁻¹
same,t½,[4],70 min
B5,100 nM mfLEPR-MMH Bound (RU),[1],167 RU
same,Kd,[1],5.3 nM
same,koff,[1],0.000554 s⁻¹
same,kon,[1],105000 M⁻¹ s⁻¹
same,t½,[1],21 min
same,100 nM hLEPR-MMH Bound (RU),[2],70 RU
same,Kd,[2],18.3 nM
same,koff,[2],0.00076 s⁻¹
same,kon,[2],41400 M⁻¹ s⁻¹
same,t½,[2],15 min
same,100 nM mfLEPR-MMH Bound (RU),[3],109 RU
same,Kd,[3],2.74 nM
same,koff,[3],0.000117 s⁻¹
same,kon,[3],42500 M⁻¹ s⁻¹
same,t½,[3],99 min
same,100 nM hLEPR-MMH Bound (RU),[4],46 RU
same,Kd,[4],7.49 nM
same,koff,[4],0.000158 s⁻¹
same,kon,[4],21100 M⁻¹ s⁻¹
same,t½,[4],73 min
